The values that follow come from the DeepSol protein solubility set.

A short description of the series: soluble on expression in E. coli; label from the status in PepcDB or PDB records.
With “MSLGQKGHKDSLYPCGGTPESSLHEALDQCMTALDLFLTNQFSEALSYLKPRTKESMYHSLTYATILEMQAMMTFDPQDILLAGNMMKEAQMLCQRHRRKSSVTDSFSSLVNRPTLGQFTEEEIHAEVCYAECLLQRAALTFLQDENMVSFIKGGIKVRNSYQTYKELDSLVQSSQYCKGENHPHFEGGVKLGVGAFNLTLSMLPTRILRLLEFVGFSGNKDYGLLQLEEGASGHSFRSVLCVMLLLCYHTFLTFVLGTGNVNIEEAEKLLKPYLNRYPKGAIFLFFAGRIEVIKGNIDAAIRRFEECCEAQQHWKQFHHMCYWELMWCFTYKGQWKMSYFYADLLSKENCWSKATYIYMKAAYLSMFGKEDHKPFGDDEVELFRAVPGLKLKIAGKSLPTEKFAIRKSRRYFSSNPISLPVPALEMMYIWNGYAVIGKQPKLTDGILEIITKAEEMLEKGPENEYSVDDECLVKLLKGLCLKYLGRVQEAEENFRSISANEKKIKYDHYLIPNALLELALLLMEQDRNEEAIKLLESAKQNYKNYSMESRTHFRIQAATLQAKSSLENSSRSMVSSVSEGHHHHHH”, the “soluble on expression in E. coli” value is “soluble”.

For the sequence “MSLGQNRLELLLFRLDGQQLYGINVFKVREVLQCPQLTLMPKSSPVVCGVANIRGATIPILDLAMATGSGALKDKNSPFVIITEYNTKTQGFLVRSVERIVNMNWEEIHPPPKGTGRDHYLTAVTRVDNQLVEIIDVEKVLAEVAPTPEAISVGVVDVETQSKALSLRVLTVDDSSVARKQVTRCLQTVGVEVVALNDGRQALDYLRKLVDEGKKPEEEFLMMISDIEMPEMDGYTLTAEIRSDPRMQKLHIILHTSLSGVFNQAMVKKVGADDFLAKFRPDDLASRVVDRIKAADISEGHHHHHH”, the “soluble on expression in E. coli” value is given as “soluble”.

Take “MSLGQSAQLRSWLQAMPKGGDLHNHLSGSVYAEDYLQWASEDGACVQLDDLSLRAPPCVAGQVPARGLSTRDVALYGRVVDALSMRNHLASPSQPTGHGQFFSTFGKFDAVVRARVADTVAAVLEQAARDRVPYVEIIANPPQMDDAAQRMQALPWHGTDDAANLRELQDALPPLVQAAQRNLADLDAQVRHVLQCDQAQPRAACQVQYRYVPYVLRVLPAPQVFGQMALAHALVAAGGSRAVAVNIVAPEDNPVAVADYARHMAMFRFFAQRYPGVPLSLHAGELTLGLVPPAQLRSHIRQAVDAGARRIGHGVDLPYEDDAQELLQRMRRDQVAVEINLTSNDVILGVTGAAHPLAMYLRAGVPVVLSTDDAGVSRADMTHEYQRAVQEQGIEYPTLKQLARNGLTYSFLPGASLWSANGKAAQACATALQRETDDAGCQAFRQSSEKARLQWQLETDLAQYERMLMEQRKVQTEGHHHHHH”: the “soluble on expression in E. coli” value is on record as “not soluble”.

Take “MSLGRFQTLDYEIPESMQRSWQDIVNLLAQIADVPTTLIMRVHQNHIEVNTSSDTQGNPYKAGDKEDLGHGLYCEHVIETKSQLVVPDALADEKWSNNPDIKLGMLSYCGLPLFWPNGETFGTICMLDSKANEYSETYRQLLNTFKDSIEAQLAVVYQQYKLLRLNSELKNRVENRTTDLAQLSFSLTQEIDRRKAAERQVNYQKTHDQGTGFLNRAALEAVVEDTLQSLEHGHQSLIVINVGFSNARSIQTRYGFEAFDEILKEFRKRLGMNDSNYFITGRPSSNDLVLLLWGEDADSKLHNLLDKITNISVGNFYINDTEVHLHSYVGVVQAHRSSSAKQLLQNACYAMLLCKESGEAYSYFCESHTHEGHHHHHH”: the “soluble on expression in E. coli” value is on record as “soluble”.

In the case of “MSLGRMFGTDGVRGIANKELTAELAYRLGRAGAYVLTNETHKPKILVGMDTRISGDMLEAALVSGILSVGAEAVCVGIVPTPAVAYLTRKYKADAGVVISASHNPVEYNGIKFFDAKGYKLSDNLEDEIQKIIESDFEGVPLPTGESVGRKVVEESAEEDYIKFAKSTIGTDLKGMKIALDCANGAAYKTAVKTFRELGAQVTVINNDPDGININCNCGSTHPEELMDYVVKKNCDLGLAFDGDADRCLAVDEKGNLIDGDFIMAICGKYLKDKGELHKDVVVVTVMSNMGLFLALDKANIKTVKTKVGDRYVLEEMLKEGYKLGGEQSGHIIFLDYNTTGDGLVTALKICSIVKESRKTLSKLASIMHKLPQVLANAKVPNNKKDIYLEDKEISDEIKKIEEELHGKGRVLIRPSGTEPLVRVMLEGEDQDRLNTLAHGLAELIEKKANEGHHHHHH”, the “soluble on expression in E. coli” value is listed as “soluble”.

Regarding “MSLGSQTDGSPAGGWPALNAVNKHLLHQHVLVKGNRTLLSMNKPGGFDCPSCSWPDPKKPHTFEYCENGAKALAWESTKKRVTPEFFARHTVSELATWSDHDLEKQGRIAEPMRYDAASDKYLPVTWDEAFAEIGEELRQLSDPWKLELYTSGRTSNEAAFLYQLFGRLYGMANFPDCSNMCHETTTVALPESIGVGKGTTTLEDFENADAIFIIGQNPGSNSPRMMSELHAAAKRGASIISFNPLREKALVRFASPQDPRDMLSLHGVEISSQYHQVRIGGDMIALQGVCKAVIEADDVARREHLPRVLDVAFIEEHTHGFEQYADYCRQLPWDLIESHSGLTRQAIEDVAAVYRRSERVICCWGMGVTQHKRGGDAVQQIINLLLLRGNIGKLGAGACPVRGHSNVQGDRTMGIYEKAGEPFLASMSKVFGFEASRRKGHAVAETCEALLRGEVEALISMGGNFFRAIPDIDAICPTVSRLKMTVLVNTKLNRSATVHGQKAFLLPCVARSERDLQNGVAQTITVEDSMSIVHGSTGMLEPASKHLISEVAIIAGIAKATLAPNPNVDWDSYVGDYARIRDKIEEVLPEQFYDFNRRILEPGGFRLPNAASERKWDTESGKANFLFTEGIYDEDDTPPGAAHLQLMTIRSHDQFNTTVYSNDDRYRDIFGDRMVVMLNPQDIERLGLKAGDYIEFQTALDLTTPRRAPGFKVIAYDVPPGCCAAYYPETNGLLPLANRDSRSNTPAAKSIPVNLVRMSPEGAQVALEREGHHHHHH”, the “soluble on expression in E. coli” value was “soluble”.

On to “MSLGSRNGEKDWENASTTSSVASGTEYTGPKLYKEPSAKSNKHIIQNALAHCCLAGKVNEGQKKKILEEMEKSDANNFLILFRDSGCQFRSLYTYCPETEEINKLTGIGPKSITKKMIEGLYKYNSDRKQFSHIPAKTLSASVDAITIHSHLWQTKRPVTPKKLLPTKEGHHHHHH”, for which the “soluble on expression in E. coli” value is on record as “soluble”.

As to “MSLGYDVIFVSGVAKARFRRRMRKLVLCITALLLSGCSREFIEKIYDVDYEPTNRFAKNLAELPGQFQKDTAALDALINSFSGNIEKRWGRRELKIAGKNNYVKYIDNYLSRSEVNFTEGRIIVETVSPIDPKAHLRNAIITTLLTPDDPAHVDLFSSKDIELKGQPFLYQQVLDQDGQPIQWSWRANRYADYLIANHLKVKQVDFKKAYYVEIPMVKDQIDIRGYKYASIVRKASRKYDIPEDLIYAIIKTESSFNPYAVSWANAYGLMQVVPKTAGRDVFKLVKNRSGEPSPEYLFNPENNIDTGTAYFYILKNRYLKEVRHPTSLEYSMISAYNGGTGGVLSTFSSDRQRAMRDLNALQPNQVYWALTKKHPNAEARRYLEKVTKFKKEFNAGEGHHHHHH”, the “soluble on expression in E. coli” value is reported as “not soluble”.

In the case of “MSLGYLNNVTGYREDLLANRAIVKHGNFALLTPDGLVKNIIPGFENCDATILSTPKLGASFVDYLVTLHQNGGNQQGFGGEGIETFLYVISGNITAKAEGKTFALSEGGYLYCPPGSLMTFVNAQAEDSQIFLYKRCYVPVEGYAPWLVSGNASELERIHYEGMDDVILLDFLPKELGFDMNMHILSFAPGASHGYIETHVQEHGAYILSGQGVYNLDNNWIPVKKGDYIFMGAYSLQAGYGVGRGEAFSYIYSKDCNRDVEIEGGSHHHHHH”, the “soluble on expression in E. coli” value was “soluble”.

For “MSLHLARVDRQWPRPLQPLGNTCSMMLIKQFPDISLNDTLFVFALEAEAGDVFTEVNTVFTGIGKVNAAIALTKAIATRRPKLIVNLGSAGSQRHGKGEIVCCNRFVQRDMDVTALGFARYETPLSDTPVVLEHGAAIPGLAVETCGSGDSFEINHGDAPYDVVDMEAYVLALIARGEGIPFVCLKYISDDAGSEAAGDWAVQVHLAAEAFKRVLFSQAEGHHHHHH”, the “soluble on expression in E. coli” value is on record as “soluble”.

For “MSLHQRILSEVEGHILSGDWPPGYRIPFEHELTEQYGCSRMTVNKALSELVKRGLIERRRKSGSYVSFPQVQSAVMEIHDVKREVQSLGLDYAYRLGERAVRKMRAGDEGRIDLPVSSRLLDVTCRHFAGGRVFCLEERVINLSAVPEAETETFETAAPGSWLLGKVPWSTAEHRIRAVAASRPTAQALEIAVGAACLVIERRTWSGGVPVTSVLLTYPGDRHELVAEFAPSAPA”, the “soluble on expression in E. coli” value was “not soluble”.
